Assays:
[1] = tested on: 293T cells; test: β-galactosidase apoptosis assay, ARC co-transfection; assay type: cell-based, human
Method: Briefly, 2 μg of pcDNA3 or pcDNA3-ARC-Flag or -HA was co-transfected with 3 μg of pcDNA3 or caspase expression plasmids. Total amount of transfected plasmid DNA was always 5 μg. 293T cells were harvested after 22 hr and lysed with 0.2% NP-40 isotonic lysis buffer [Z. N. Oltvai et al., Cell 74:609-619 (1993)]. For immunoprecipitation, […] of soluble protein was incubated with 10 μg/ml of polyclonal anti-Flag, monoclonal anti-AU1 or polyclonal anti-HA antibody for 2 hr at 4° C. and tagged proteins were immunoprecipitated with Protein A-Sepharose 4B (Zymed Laboratories Inc., San Francisco, Calif.). Immunoprecipitates were subjected to 12% SDS-polyacrylamide electrophoresis and immunoblotted with anti-Flag, anti-AU1 or anti-HA antibodies. β-galactosidase apoptosis assay and Caspase-8 enzymatic assay: 5×10^5 293T cells were transfected with 0.3 μg of pcDNA3-β-gal plus each expression plasmid in triplicate. Cells were fixed 16 hrs after transfection, stained for β-galactosidase and assayed for morphological features of apoptosis [M. Muira et al., Cell 75:653-660 (1993)]. Statistical significance was determined by one-way ANOVA followed by Student-Neuman-Keuls post-doc comparisons. For caspase-8 enzymatic assay, 1.5×10^6 human 293T cells were co-transfected with pcDNA3, pcDNA3-ARC-Flag, pcDNA3-caspase-8 and pcDNA3-caspase-8-mt by a calcium phosphate method. Total amount of transfected plasmid DNA was always 2.5 μg. 293T cells were harvested 18hr after transfection and lysed with 0.2% NP-40 isotonic lysis buffer. Tagged proteins were immunoprecipitated and caspase activity was measured as described [N. Inohara et al., Proc. Natl. Acad. Sci. USA 94:10717-10722 (1997)].

[2] = molecular target: T1, C-caspase-8-HA (human caspase-8 amino acids 216-496, C-terminal HA tag) (human, UniProt Q14790-4 216-496); test: co-immunoprecipitation of caspase-8 deletion mutants from 293T cells, immunoblot
T1 construct: range 216-496; The canonical UniProt entry has 479 residues; also called pcDNA3-C-caspase-8-HA; C-terminal region that contains the catalytic domain of caspase-8; not shown: C-terminal HA tag

[3] = molecular target: T2, caspase-9 (Homo sapiens, UniProt P55211); test: Co-immunoprecipitation of ARC with caspase-9; assay type: binding; details: 293T lysates
T2 construct: expressed in transfected cells; host or cells: human 293T cells
T2 sequence (P55211 1-416): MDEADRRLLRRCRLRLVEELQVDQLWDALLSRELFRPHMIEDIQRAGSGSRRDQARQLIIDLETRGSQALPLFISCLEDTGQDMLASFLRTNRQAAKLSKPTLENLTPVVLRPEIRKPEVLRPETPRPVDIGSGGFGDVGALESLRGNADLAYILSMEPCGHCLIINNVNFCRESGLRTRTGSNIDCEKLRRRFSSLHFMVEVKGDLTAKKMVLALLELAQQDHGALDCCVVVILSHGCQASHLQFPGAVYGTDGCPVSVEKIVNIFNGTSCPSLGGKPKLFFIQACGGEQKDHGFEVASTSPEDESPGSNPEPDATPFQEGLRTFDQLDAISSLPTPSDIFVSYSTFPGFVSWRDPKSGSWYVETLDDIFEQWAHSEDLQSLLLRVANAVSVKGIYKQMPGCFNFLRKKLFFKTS
Method: (§1) Briefly, 2 μg of pcDNA3 or pcDNA3-ARC-Flag or -HA was co-transfected with 3 μg of pcDNA3 or caspase expression plasmids. Total amount of transfected plasmid DNA was always 5 μg. 293T cells were harvested after 22 hr and lysed with 0.2% NP-40 isotonic lysis buffer [Z. N. Oltvai et al., Cell 74:609-619 (1993)]. For immunoprecipitation, […] of soluble protein was incubated with 10 μg/ml of polyclonal anti-Flag, monoclonal anti-AU1 or polyclonal anti-HA antibody for 2 hr at 4° C. and tagged proteins were immunoprecipitated with Protein A-Sepharose 4B (Zymed Laboratories Inc., San Francisco, Calif.). Immunoprecipitates were subjected to 12% SDS-polyacrylamide electrophoresis and immunoblotted with anti-Flag, anti-AU1 or anti-HA antibodies.

[4] = molecular target: T3, caspase-1 (Homo sapiens, UniProt P29466); test: Co-immunoprecipitation of ARC with caspase-1; assay type: binding; details: 293T lysates
T3 construct: expressed in transfected cells; host or cells: human 293T cells
T3 sequence (P29466 120-404): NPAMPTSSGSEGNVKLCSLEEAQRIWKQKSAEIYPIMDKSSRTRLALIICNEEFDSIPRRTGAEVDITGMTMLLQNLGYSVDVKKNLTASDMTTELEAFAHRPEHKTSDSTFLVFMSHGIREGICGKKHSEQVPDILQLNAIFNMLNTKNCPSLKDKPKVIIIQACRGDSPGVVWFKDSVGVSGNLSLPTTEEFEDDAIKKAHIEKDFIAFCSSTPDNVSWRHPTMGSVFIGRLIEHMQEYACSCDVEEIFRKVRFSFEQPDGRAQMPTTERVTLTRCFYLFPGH
Method: as §1

[5] = tested on: caspase-8; test: Co-immunoprecipitation of ARC with caspase-8; assay type: binding, human; details: 293T lysates
Method: as §1

[6] = molecular target: T4, caspase-8 (Homo sapiens, UniProt Q14790); test: Co-immunoprecipitation of ARC with caspase-8; assay type: binding; details: caspase-8 deletion mutant
T4 construct: expressed in transfected cells; host or cells: human 293T cells
Method: as §1

[7] = molecular target: T5, CED-3 (Caenorhabditis elegans, UniProt P42573); test: Co-immunoprecipitation of ARC with CED-3; assay type: binding, C. elegans; details: 293T lysates
T5 construct: expressed in transfected cells; host or cells: human 293T cells
T5 sequence (P42573 222-503): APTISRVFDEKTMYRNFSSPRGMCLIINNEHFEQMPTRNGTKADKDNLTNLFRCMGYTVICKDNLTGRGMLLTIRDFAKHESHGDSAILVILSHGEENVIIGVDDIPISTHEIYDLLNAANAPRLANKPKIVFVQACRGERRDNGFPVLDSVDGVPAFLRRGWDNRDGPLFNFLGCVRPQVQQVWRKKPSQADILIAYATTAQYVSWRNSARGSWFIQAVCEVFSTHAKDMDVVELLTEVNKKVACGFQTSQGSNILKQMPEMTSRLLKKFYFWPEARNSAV
Method: as §1

T1 sequence (Q14790 199-479 limits assumed): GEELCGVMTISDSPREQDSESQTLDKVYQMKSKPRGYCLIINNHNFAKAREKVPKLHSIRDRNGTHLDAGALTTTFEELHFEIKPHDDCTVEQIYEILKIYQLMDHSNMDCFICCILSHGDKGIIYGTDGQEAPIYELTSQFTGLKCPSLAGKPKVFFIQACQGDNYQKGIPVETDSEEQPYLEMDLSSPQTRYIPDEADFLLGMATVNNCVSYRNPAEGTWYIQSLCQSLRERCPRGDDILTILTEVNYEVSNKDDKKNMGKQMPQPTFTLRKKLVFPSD
T4 sequence (Q14790 1-215 isoform Q14790-4): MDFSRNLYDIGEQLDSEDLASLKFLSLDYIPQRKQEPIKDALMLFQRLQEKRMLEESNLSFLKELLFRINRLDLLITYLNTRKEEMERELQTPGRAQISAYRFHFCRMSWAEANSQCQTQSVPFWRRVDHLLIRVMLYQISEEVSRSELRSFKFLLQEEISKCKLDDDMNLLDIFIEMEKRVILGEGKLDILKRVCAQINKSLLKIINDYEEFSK

binding result [2]: no binding
co-immunoprecipitation with caspase-9 [3]: not
co-immunoprecipitation with caspase-1 [4]: not
co-immunoprecipitation with caspase-8 [5]: co-immunoprecipitated
co-immunoprecipitation with CED-3 [7]: co-immunoprecipitated
B1: human ARC (Apoptosis Repressor with CARD domain), C-terminally Flag- or HA-tagged (other)
chain: MGNAQERPSETIDRERKRLVETLQADSGLLLDALLARGVLTGPEYEALDALPDAERRVRRLLLLVQGKGEAACQELLRCAQRTAGAPDPAWDWQHVGPGYRDRSYDPPCPGHWTPEAPGSGTTCPGLPRASDPDEAGGPEGSEAVQSGTPEEPEPELEAEASKEAEPEPEPEPELEPEAEAEPEPELEPEPDPEPEPDFEERDESEDS
notes: Entire open reading frame expressed in 293T cells; The two tagged constructs are merged here; also called ARC-Flag; ARC-HA; not shown: C-terminal FLAG or HA tag
induction of apoptosis by expression of ARC ([1]; ARC alone): did not induce apoptosis
apoptosis induced by C. elegans CED-3 ([1]; co-expression with ARC): inhibited
apoptosis induced by CLARP ([1]; co-expression with ARC): inhibited
apoptosis induced by FADD ([1]; co-expression with ARC): inhibited
apoptosis induced by TRADD ([1]; co-expression with ARC): inhibited
apoptosis induced by caspase-8 ([1]; co-expression with ARC): inhibited caspase-8-induced killing in a dose-dependent manner
apoptosis induced by stimulation of CD95/Fas receptor ([1]; co-expression with ARC): partially but significantly inhibited
apoptosis induced by stimulation of TNF-R1 receptor ([1]; co-expression with ARC): partially but significantly inhibited
apoptosis induced by stimulation of TRAMP/DR3 receptor ([1]; co-expression with ARC): partially but significantly inhibited
apoptosis mediated by caspase-9 ([1]; co-expression with ARC): not
association with the N-terminal death effector domain (DED) of caspase-8 [6]: associated
